Laboratory results from EP1088069B1.

Legend:
Assay in all cases: cell-based or functional assay
[1] = molecular target: Angiostatin + Binding Domain (yeast two-hybrid bait fusion) (UniProt P00747)
[2] = molecular target: Binding Domain alone
[3] = molecular target: p53 + Binding Domain

Chain of UniProt P00747 (P00747 99-459): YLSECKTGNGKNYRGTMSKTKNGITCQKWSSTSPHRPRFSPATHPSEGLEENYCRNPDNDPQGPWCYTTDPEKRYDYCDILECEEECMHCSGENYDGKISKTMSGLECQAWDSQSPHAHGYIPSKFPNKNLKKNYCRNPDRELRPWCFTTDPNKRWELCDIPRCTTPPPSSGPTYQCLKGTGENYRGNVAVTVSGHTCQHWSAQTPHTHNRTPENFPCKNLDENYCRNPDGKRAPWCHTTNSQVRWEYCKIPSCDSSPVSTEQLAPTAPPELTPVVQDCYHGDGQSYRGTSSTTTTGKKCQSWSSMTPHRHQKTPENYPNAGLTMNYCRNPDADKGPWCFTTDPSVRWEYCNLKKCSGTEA

| Substance | β-Gal Activity [1] [u] | β-Gal Activity [2] [u] | β-Gal Activity [3] [u] |
| --- | --- | --- | --- |
| Big3 - Activation Domain (yeast two-hybrid prey fusion) (from UniProt Q4VCS5 871-1013) | 15 | 0.07 | 0.05 |
| Activation Domain alone (from UniProt P04386 768-881) | < 0.04 |  |  |
| SV40LT - Activation Domain (from UniProt P03070 84-708) |  |  | 90 |
